In this assay the target is T1, C-reactive protein (human, UniProt P02741 19-224).
T1 construct: also called CRP; human CRP
T1 sequence: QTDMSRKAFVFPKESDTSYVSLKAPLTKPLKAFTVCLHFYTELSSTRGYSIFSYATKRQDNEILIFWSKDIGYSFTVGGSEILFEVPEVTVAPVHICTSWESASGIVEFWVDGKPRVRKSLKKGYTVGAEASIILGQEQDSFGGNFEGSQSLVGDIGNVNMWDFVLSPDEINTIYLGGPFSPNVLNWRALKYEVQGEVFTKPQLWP
Briefly: ELISA, CRP beside IgG1 and IgA.

B1: soluble gp34 ectodomain W65F, V5-His tagged (sgp34mtrp-V5-His) (receptor)
chain: SSSNAVEPTKKPLKLANYRATCEDRTRTLVTRLNTSHHSVVFQRYDIYSRYMRRMPPLCIITDAYKETTRQGGAAFACTRQNLTLYNLTVKDTGVYLLQDQYTGDVEAFYLIIHPRSFCRALETRRCFYPGPGRVVVTDSQEADRAIISDLKRQWSGKPIPNPLLGLDSTRTGHHHHHH
notes: signal peptide 1-23 left out; V5 and His tags are in the entry; Forms only monomers and dimers; also called sol gp34mtrp; gp34 1-179 W65F
On to B1, for which the binding result was “binds”.

The record behind these values is US20250270295A1 (ALBERT LUDWIGS UNIVERSITAET FREIBURG, published 2025).
